Measured values taken from paper PMC2861611 (Molecular Biology of the Cell, 2010).

Molecular target: T1, GST-PDZK1 tail (human, UniProt Q5T2W1 459-519)
T1 sequence (looked up): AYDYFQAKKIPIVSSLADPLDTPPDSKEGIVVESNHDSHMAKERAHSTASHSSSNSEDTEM
Assay: pull-down

B1: EBP50 (1-354) (domain or fragment, UniProt O14745 1-354, looked up)
chain: MSADAAAGAPLPRLCCLEKGPNGYGFHLHGEKGKLGQYIRLVEPGSPAEKAGLLAGDRLVEVNGENVEKETHQQVVSRIRAALNAVRLLVVDPETDEQLQKLGVQVREELLRAQEAPGQAEPPAAAEVQGAGNENEPREADKSHPEQRELRPRLCTMKKGPSGYGFNLHSDKSKPGQFIRSVDPDSPAEASGLRAQDRIVEVNGVCMEGKQHGDVVSAIRAGGDETKLLVVDRETDEFFKKCRVIPSQEHLNGPLPVPFTNGEIQKENSREALAEAALESPRPALVRSASSDTSEELNSQDSPPKQDSTAPSSTSSSDPILDFNISLAMAKERAHQKRSSKRAPQMDWSKKNEL
- amount precipitated relative to full-length EBP50 (1-358): 2.4 times
